Laboratory results reported in PMC4601014 (Scientific Reports, 2015).

Target: His/S-ΔIBB importin-α1 (mouse, residues 70–529), wild-type (mouse, UniProt P52293 70-529)
Assay: ELISA
Conditions: both partners purified

B1: GST-NP ncNLS, wild-type (peptide)
chain: ASQGTKRSYEQMET
notes: also called GST-tagged ncNLS; not shown: GST, N-terminal, kept
Kd: 1700 nM
